Measurements reported in patent US20260242478A1 (published 2026).
Where no end group is shown, it is not given here.

B1: Phage-3768 (peptide, not shown: large carriers)
peptide: SEPVCTPMWMCTGI
notes: Clonal phage of the peptide-180 library, tested as crude phage supernatant
B2: Phage-3787 (peptide)
peptide: LKVECRPLWMCEGF
notes: Clone of the Peptide-180 optimisation library, tested as clonal phage supernatant
B3: Phage-3794 (peptide)
peptide: TVKQCVPEWMCVML
notes: as for B2
B4: Phage-3758 (peptide, not shown: large carriers)
peptide: YETVCKPLWMCTGF
modifications: cysteine pairing not given here; also: displayed on phage as pIII fusion
notes: as for B1
B5: Phage-3791 (peptide)
peptide: VHMACTPWWMCVGF
notes: as for B2
B6: Phage-3759 (peptide, not shown: large carriers)
peptide: DVGMCRPKWMCDGF
notes: as for B1
B7: Phage-3795 (peptide)
peptide: DLIYCRPAWMCDGF
notes: as for B2
B8: Phage-3767 (peptide, not shown: large carriers)
peptide: VVRVCEPSWMCAGF
modifications: cysteine pairing not given here; also: displayed on phage as pIII fusion
notes: as for B1
B9: Phage-3771 (peptide, not shown: large carriers)
peptide: GNIWCEPAWMCVGF
notes: as for B1
B10: Phage-3792 (peptide)
peptide: HMQYCIPQWMCHGF
notes: as for B2
B11: Phage-3797 (peptide)
peptide: VEYLCKPVWMCQGF
notes: as for B2
B12: Phage-3780 (peptide)
peptide: HMPLCIPVWMCAGF
modifications: not fully specified (residue 3); cysteine pairing not given here; also: displayed on phage as fusion to pIII, junction not given here
B13: Phage-3763 (peptide, not shown: large carriers)
peptide: DQRECIPHWMCAGF
modifications: cysteine pairing not given here; also: displayed on phage as pIII fusion
notes: as for B1
B14: Phage-3760 (peptide, not shown: large carriers)
peptide: VLPSCIPSWMCNGF
notes: as for B1
B15: Phage-3790 (peptide)
peptide: VSQLCIPEWMCIGI
notes: as for B2
B16: Phage-3796 (peptide)
peptide: MERSCIPDWMCLGF
notes: as for B2
B17: Phage-3793 (peptide)
peptide: FAFDCVPKWMCTGF
notes: as for B2
B18: Phage-3781 (peptide)
peptide: LVARCVPEWMCAGF
modifications: cysteine pairing not given here; also: displayed on phage as fusion to pIII, junction not given here
B19: Phage-3765 (peptide, not shown: large carriers)
peptide: MVIECRPEWMCVGF
notes: as for B1
B20: Phage-3788 (peptide)
peptide: MLRSCVPPWMCAGF
modifications: cysteine pairing not given here; also: displayed on phage as fusion to pIII, junction not given here
notes: as for B2
B21: Phage-3761 (peptide, not shown: large carriers)
peptide: EVVACVPEWMCVGF
notes: as for B1
B22: Phage-3789 (peptide)
peptide: EQVLCRPEWMCIGF
notes: as for B2
B23: Phage-3762 (peptide, not shown: large carriers)
peptide: LVHLCKPPWMCHGF
notes: as for B1
B24: Phage-3766 (peptide, not shown: large carriers)
peptide: LYGVCVPEWMCHGF
notes: as for B1
B25: Phage-3786 (peptide)
peptide: EMIRCEPRWMCSGF
modifications: cysteine pairing not given here; also: displayed on phage as fusion to pIII, junction not given here
notes: as for B2
B26: Phage-3770 (peptide, not shown: large carriers)
peptide: TTPMCVPAWMCSGM
notes: as for B1
B27: Phage-3769 (peptide, not shown: large carriers)
peptide: GSPFCVPLWMCEGF
notes: as for B1
B28: Phage-3764 (peptide, not shown: large carriers)
peptide: ENRMCIPEWMCQAS
notes: as for B1

Assays:
PSMA Fab (006 PSMA Fab) [1] = molecular target: T1, PSMA Fab (006 PSMA Fab) (biotinylated (site not stated)); test: clonal phage ELISA on biotinylated PSMA Fab captured on neutravidin plate, blocking buffer alone; anti-M13 HRP detection
T1 construct: also called Anti-PSMA Fab; anti-PSMA Fab

PSMA Fab (006 PSMA Fab) [2] = molecular target: T2, PSMA Fab (006 PSMA Fab); test: phage ELISA; biotinylated PSMA Fab on neutravidin plate, clonal phage supernatant, anti-M13 HRP detection;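 note: wells preincubated with PSMA antigen in blocking buffer or with blocking buffer only before clonal phage were added for a short incubation, then bound phage detected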
T2 construct: also called Anti-PSMA Fab; anti-PSMA Fab
Experimental: (§1) Clonal phage were harvested as crude supernatants and screened via standard ELISAs. […] Prior to the addition of clonal phage. wells were incubated with blocking buffer and PSMA antigen or blocking buffer alone. Without washing or aspirating, clonal phage supernatants were then added to the wells and incubated for a short time. Wells were then washed followed by detection of bound phage using a horse radish conjugated anti-M13 antibody.

PSMA Fab (006 PSMA Fab) [3] = molecular target: T2, PSMA Fab (006 PSMA Fab); test: phage ELISA; biotinylated PSMA Fab on neutravidin plate pre-incubated with PSMA antigen as competitor, anti-M13 HRP detection;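 note: crude clonal phage supernatants tested, compared against control wells pre-incubated with blocking buffer only, without PSMA antigen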
Experimental: as §1

PSMA Fab [4] = molecular target: T3, PSMA Fab; test: clonal phage ELISA; biotinylated PSMA Fab on neutravidin plate, wells pre-incubated with PSMA antigen as competitor; anti-M13 HRP detection;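 note: crude clonal phage supernatants added to antigen-treated wells without a wash, incubated briefly, then bound phage read out via horse radish–conjugated anti-M13 antibody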
T3 construct: also called Anti-PSMA Fab; 006 PSMA Fab
Experimental: as §1

PSMA Fab [5] = molecular target: T3, PSMA Fab; test: clonal phage ELISA; biotinylated PSMA Fab on neutravidin plate, blocking buffer alone; anti-M13 HRP detection;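 note: crude clonal phage supernatants added without washing to wells pretreated with blocking buffer with or without PSMA antigen, short incubation, then washed before detecting bound phage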
Experimental: as §1

Anti-PSMA Fab [6] = molecular target: T4, Anti-PSMA Fab; test: clonal phage ELISA on captured PSMA Fab, wells pre-incubated with PSMA antigen as competitor, anti-M13-HRP detection;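 note: crude clonal phage supernatants added without washing after the PSMA preincubation, comparison wells received blocking buffer alone without PSMA, bound phage read after washing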
T4 construct: also called 006 PSMA Fab
Experimental: as §1

Anti-PSMA Fab [7] = molecular target: T4, Anti-PSMA Fab; test: clonal phage ELISA on biotinylated PSMA Fab captured on neutravidin plates, anti-M13-HRP detection;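 note: crude clonal phage supernatants added to wells preincubated with PSMA antigen or with blocking buffer only (no wash between), briefly incubated, then washed before detecting bound phage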
Experimental: as §1

Row | Binder | Phage binding ELISA signal, Anti-PSMA Fab (PSMA Fab (006 PSMA Fab) [1]) | Phage binding ELISA signal, Anti-PSMA Fab (PSMA Fab (006 PSMA Fab) [2]) | Phage binding ELISA signal, Anti-PSMA Fab in presence of PSMA (PSMA Fab (006 PSMA Fab) [3]) | also measured
1 | B1 | 1.35 | – | – | –
2 | GLRMCEPMWMCQGF (cysteine pairing not given here; also: displayed on phage as pIII fusion) [Phage-3772] | – | 1.34 | 0.0749 | –
3 | YHKECIPPWMCMGF [Phage-3756] | – | – | – | Phage binding ELISA signal, Anti-PSMA Fab with PSMA antigen (PSMA Fab [4]): 0.0922; Phage binding ELISA signal, Anti-PSMA Fab (PSMA Fab [5]): 1.37
4 | WEGFCVPTWMCDGF [Phage-3774] | – | 1.33 | 0.0864 | –
5 | B2 | – | – | – | Phage binding ELISA signal, Anti-PSMA Fab with PSMA antigen (Anti-PSMA Fab [6]): 0.075; Phage binding ELISA signal, Anti-PSMA Fab (Anti-PSMA Fab [7]): 1.32
6 | B3 | – | – | – | Phage binding ELISA signal, Anti-PSMA Fab with PSMA antigen (Anti-PSMA Fab [6]): 0.104; Phage binding ELISA signal, Anti-PSMA Fab (Anti-PSMA Fab [7]): 1.31
7 | B4 | 1.36 | – | – | –
8 | VQLMCMPEWMCSGL [Phage-3775] | – | 1.33 | 0.0599 | –
9 | ISPICRPAWMCHGF [Phage-3777] | – | 1.33 | 0.0873 | –
10 | B5 | – | – | – | Phage binding ELISA signal, Anti-PSMA Fab with PSMA antigen (Anti-PSMA Fab [6]): 0.0962; Phage binding ELISA signal, Anti-PSMA Fab (Anti-PSMA Fab [7]): 1.32
11 | B6 | 1.36 | – | – | –
12 | VHRMCEPKWMCEGF [Phage-3773] | – | 1.33 | 0.0695 | –
13 | B7 | – | – | – | Phage binding ELISA signal, Anti-PSMA Fab with PSMA antigen (Anti-PSMA Fab [6]): 0.0679; Phage binding ELISA signal, Anti-PSMA Fab (Anti-PSMA Fab [7]): 1.31
14 | B8 | 1.35 | – | – | –
15 | B9 | 1.34 | – | – | –
16 | EEMMCKPDWMCYGF [Phage-3755] | – | – | – | Phage binding ELISA signal, Anti-PSMA Fab with PSMA antigen (PSMA Fab [4]): 0.109; Phage binding ELISA signal, Anti-PSMA Fab (PSMA Fab [5]): 1.37
17 | B10 | – | – | – | Phage binding ELISA signal, Anti-PSMA Fab with PSMA antigen (Anti-PSMA Fab [6]): 0.0825; Phage binding ELISA signal, Anti-PSMA Fab (Anti-PSMA Fab [7]): 1.32
18 | VTTLCRPAWMCHGF [Phage-3778] | – | 1.33 | 0.0881 | –
19 | B11 | – | – | – | Phage binding ELISA signal, Anti-PSMA Fab with PSMA antigen (Anti-PSMA Fab [6]): 0.0609; Phage binding ELISA signal, Anti-PSMA Fab (Anti-PSMA Fab [7]): 1.31
20 | B12 | – | 1.33 | 0.113 | –
21 | B13 | 1.36 | – | – | –
22 | B14 | 1.36 | – | – | –

Row | Binder | Phage binding ELISA signal, Anti-PSMA Fab (PSMA Fab (006 PSMA Fab) [1]) | Phage binding ELISA signal, Anti-PSMA Fab (PSMA Fab (006 PSMA Fab) [2]) | Phage binding ELISA signal, Anti-PSMA Fab in presence of PSMA (PSMA Fab (006 PSMA Fab) [3]) | also measured
23 | SVVKCVPSWMCTGF [Phage-3785] | – | 1.32 | 0.0729 | –
24 | B15 | – | – | – | Phage binding ELISA signal, Anti-PSMA Fab with PSMA antigen (Anti-PSMA Fab [6]): 0.08; Phage binding ELISA signal, Anti-PSMA Fab (Anti-PSMA Fab [7]): 1.32
25 | B16 | – | – | – | Phage binding ELISA signal, Anti-PSMA Fab with PSMA antigen (Anti-PSMA Fab [6]): 0.0541; Phage binding ELISA signal, Anti-PSMA Fab (Anti-PSMA Fab [7]): 1.31
26 | B17 | – | – | – | Phage binding ELISA signal, Anti-PSMA Fab with PSMA antigen (Anti-PSMA Fab [6]): 0.0829; Phage binding ELISA signal, Anti-PSMA Fab (Anti-PSMA Fab [7]): 1.31
27 | PGASCVPAWMCDGF [Phage-3784] | – | 1.33 | 0.0653 | –
28 | PVQLCIPSWMCDGF [Phage-3776] | – | 1.33 | 0.0876 | –
29 | VEVRCVPAWMCEGL [Phage-3783] | – | 1.33 | 0.0698 | –
30 | EYQRCIPEWMCSGF [Phage-3779] | – | 1.33 | 0.0735 | –
31 | B18 | – | 1.33 | 0.102 | –
32 | B19 | 1.35 | – | – | –
33 | B20 | – | – | – | Phage binding ELISA signal, Anti-PSMA Fab with PSMA antigen (Anti-PSMA Fab [6]): 0.0821; Phage binding ELISA signal, Anti-PSMA Fab (Anti-PSMA Fab [7]): 1.32
34 | YSNFCVPHWMCSGF [Phage-3782] | – | 1.33 | 0.0679 | –
35 | EAKVCKPAWMCDGL [Phage-3754] | – | – | – | Phage binding ELISA signal, Anti-PSMA Fab with PSMA antigen (PSMA Fab [4]): 0.077; Phage binding ELISA signal, Anti-PSMA Fab (PSMA Fab [5]): 1.37
36 | B21 | 1.36 | – | – | –
37 | B22 | – | – | – | Phage binding ELISA signal, Anti-PSMA Fab with PSMA antigen (Anti-PSMA Fab [6]): 0.0856; Phage binding ELISA signal, Anti-PSMA Fab (Anti-PSMA Fab [7]): 1.32
38 | B23 | 1.36 | – | – | –
39 | TIMYCKPTWMCTGF [Phage-3757] | – | – | – | Phage binding ELISA signal, Anti-PSMA Fab with PSMA antigen (PSMA Fab [4]): 0.0727; Phage binding ELISA signal, Anti-PSMA Fab (PSMA Fab [5]): 1.37
40 | B24 | 1.35 | – | – | –
41 | B25 | – | – | – | Phage binding ELISA signal, Anti-PSMA Fab with PSMA antigen (Anti-PSMA Fab [6]): 0.0656; Phage binding ELISA signal, Anti-PSMA Fab (Anti-PSMA Fab [7]): 1.32
42 | B26 | 1.34 | – | – | –
43 | B27 | 1.35 | – | – | –
44 | B28 | 1.36 | – | – | –
